Test results from patent US20250066503A1, “CELL INJURY INDUCING THERAPEUTIC DRUG FOR USE IN CANCER THERAPY” (CHUGAI SEIYAKU KABUSHIKI KAISHA, priority 2016, published 2025).
Changes are numbered by the printed parent chain.

B1: GCH094-G1dh/none-Hi-Kn010G3/L0272-k0 (antibody, V domains shown)
VH: QVQLVQSGAEVKKPGASVTVSCKASGYTFTDYEMHWVRQAPGEGLEWMGAIDGETPDTAYSEKFKGRVTLTADKSTSTAYMELSSLTSEDTAVYYCTRFYSYTYWGQGTLVTVSS
VL: DIVMTQSPLSLPVTPGEPASISCRSSQPLVHSNRQTYLHWYQQKPGQAPRLLIYKVSNRFSGVPDRFSGSGSGTDFTLKISRVEAEDVGVYYCGQGTQVPYTFGQGTKLEIK
notes: one-arm
B2: H0610-G1dh/none-Hi-Kn010G3/L0120-k0 (antibody, V domains shown)
VH: B1 VH with T19K, V37I, A40P, E43Q, M48I, E54K, E62Q
VL: B1 VL with P28S, Q35N, F60G
notes: one-arm
B3: H0610-G1dh/none-Hi-Kn010G3/L0003-k0 (antibody, V domains shown)
VH: B1 VH with T19K, V37I, A40P, E43Q, M48I, E54K, E62Q
VL: B1 VL with S25I, P28S, Q35N
notes: one-arm
B4: H0610-G1dh/none-Hi-Kn010G3/L0075-k0 (antibody, V domains shown)
VH: B1 VH with T19K, V37I, A40P, E43Q, M48I, E54K, E62Q
VL: B1 VL with P28S, Q35W
notes: one-arm
B5: H0610-G1dh/none-Hi-Kn010G3/L0047-k0 (antibody, V domains shown)
VH: B1 VH with T19K, V37I, A40P, E43Q, M48I, E54K, E62Q
VL: B1 VL with P28S, S32W, Q35N
notes: one-arm
B6: H0610-G1dh/none-Hi-Kn010G3/L0002-k0 (antibody, V domains shown)
VH: B1 VH with T19K, V37I, A40P, E43Q, M48I, E54K, E62Q
VL: B1 VL with S25A, P28S, Q35N
notes: one-arm
B7: H0610-G1dh/none-Hi-Kn010G3/L0063-k0 (antibody, V domains shown)
VH: B1 VH with T19K, V37I, A40P, E43Q, M48I, E54K, E62Q
VL: B1 VL with P28S, Q35E
notes: one-arm
B8: H0610-G1dh/none-Hi-Kn010G3/L0066-k0 (antibody, V domains shown)
VH: B1 VH with T19K, V37I, A40P, E43Q, M48I, E54K, E62Q
VL: B1 VL with P28S, Q35H
notes: one-arm
B9: H0610-G1dh/none-Hi-Kn010G3/L0089-k0 (antibody, V domains shown)
VH: B1 VH with T19K, V37I, A40P, E43Q, M48I, E54K, E62Q
VL: B1 VL with P28S, Q35N, H39L
notes: one-arm
B10: H0610-G1dh/none-Hi-Kn010G3/L0013-k0 (antibody, V domains shown)
VH: B1 VH with T19K, V37I, A40P, E43Q, M48I, E54K, E62Q
VL: B1 VL with P28S, L29I, Q35N
notes: one-arm
B11: H0610-G1dh/none-Hi-Kn010G3/L0090-k0 (antibody, V domains shown)
VH: B1 VH with T19K, V37I, A40P, E43Q, M48I, E54K, E62Q
VL: B1 VL with P28S, Q35N, H39M
notes: one-arm
B12: H0610-G1dh/none-Hi-Kn010G3/L0124-k0 (antibody, V domains shown)
VH: B1 VH with T19K, V37I, A40P, E43Q, M48I, E54K, E62Q
VL: B1 VL with P28S, Q35N, F60L
notes: one-arm
B13: H0610-G1dh/none-Hi-Kn010G3/L0014-k0 (antibody, V domains shown)
VH: B1 VH with T19K, V37I, A40P, E43Q, M48I, E54K, E62Q
VL: B1 VL with P28S, L29M, Q35N
notes: one-arm
B14: H0610-G1dh/none-Hi-Kn010G3/L0032-k0 (antibody, V domains shown)
VH: B1 VH with T19K, V37I, A40P, E43Q, M48I, E54K, E62Q
VL: B1 VL with P28S, H31R, Q35N
notes: one-arm
B15: H0610-G1dh/none-Hi-Kn010G3/L0082-k0 (antibody, V domains shown)
VH: B1 VH with T19K, V37I, A40P, E43Q, M48I, E54K, E62Q
VL: B1 VL with P28S, Q35N, L38V
notes: one-arm
B16: H0610-G1dh/none-Hi-Kn010G3/L0043-k0 (antibody, V domains shown)
VH: B1 VH with T19K, V37I, A40P, E43Q, M48I, E54K, E62Q
VL: B1 VL with P28S, S32N, Q35N
notes: one-arm
B17: H0610-G1dh/none-Hi-Kn010G3/L0065-k0 (antibody, V domains shown)
VH: B1 VH with T19K, V37I, A40P, E43Q, M48I, E54K, E62Q
VL: B1 VL with P28S, Q35G
notes: one-arm
B18: H0610-G1dh/none-Hi-Kn010G3/L0007-k0 (antibody, V domains shown)
VH: B1 VH with T19K, V37I, A40P, E43Q, M48I, E54K, E62Q
VL: B1 VL with S25T, P28S, Q35N
notes: one-arm
B19: H0610-G1dh/none-Hi-Kn010G3/L0115-k0 (antibody, V domains shown)
VH: B1 VH with T19K, V37I, A40P, E43Q, M48I, E54K, E62Q
VL: B1 VL with P28S, Q35N, N58W
notes: one-arm
B20: H0610-G1dh/none-Hi-Kn010G3/L0109-k0 (antibody, V domains shown)
VH: B1 VH with T19K, V37I, A40P, E43Q, M48I, E54K, E62Q
VL: B1 VL with P28S, Q35N, N58M
notes: one-arm
B21: H0610-G1dh/none-Hi-Kn010G3/L0064-k0 (antibody, V domains shown)
VH: B1 VH with T19K, V37I, A40P, E43Q, M48I, E54K, E62Q
VL: B1 VL with P28S, Q35F
notes: one-arm
B22: H0610-G1dh/none-Hi-Kn010G3/L0093-k0 (antibody, V domains shown)
VH: B1 VH with T19K, V37I, A40P, E43Q, M48I, E54K, E62Q
VL: B1 VL with P28S, Q35N, H39Q
notes: one-arm
B23: H0610-G1dh/none-Hi-Kn010G3/L0062-k0 (antibody, V domains shown)
VH: B1 VH with T19K, V37I, A40P, E43Q, M48I, E54K, E62Q
VL: B1 VL with P28S, Q35D
notes: one-arm
B24: H0610-G1dh/none-Hi-Kn010G3/L0085-k0 (antibody, V domains shown)
VH: B1 VH with T19K, V37I, A40P, E43Q, M48I, E54K, E62Q
VL: B1 VL with P28S, Q35N, H39E
notes: one-arm
B25: H0610-G1dh/none-Hi-Kn010G3/L0045-k0 (antibody, V domains shown)
VH: B1 VH with T19K, V37I, A40P, E43Q, M48I, E54K, E62Q
VL: B1 VL with P28S, S32Q, Q35N
notes: one-arm
B26: H0610-G1dh/none-Hi-Kn010G3/L0091-k0 (antibody, V domains shown)
VH: B1 VH with T19K, V37I, A40P, E43Q, M48I, E54K, E62Q
VL: B1 VL with P28S, Q35N, H39N
notes: one-arm
B27: H0610-G1dh/none-Hi-Kn010G3/L0113-k0 (antibody, V domains shown)
VH: B1 VH with T19K, V37I, A40P, E43Q, M48I, E54K, E62Q
VL: B1 VL with P28S, Q35N, N58T
notes: one-arm
B28: H0610-G1dh/none-Hi-Kn010G3/L0016-k0 (antibody, V domains shown)
VH: B1 VH with T19K, V37I, A40P, E43Q, M48I, E54K, E62Q
VL: B1 VL with P28S, L29V, Q35N
notes: one-arm
B29: H0610-G1dh/none-Hi-Kn010G3/L0079-k0 (antibody, V domains shown)
VH: B1 VH with T19K, V37I, A40P, E43Q, M48I, E54K, E62Q
VL: B1 VL with P28S, Q35N, L38I
notes: one-arm
B30: H0610-G1dh/none-Hi-Kn010G3/L0106-k0 (antibody, V domains shown)
VH: B1 VH with T19K, V37I, A40P, E43Q, M48I, E54K, E62Q
VL: B1 VL with P28S, Q35N, N58H
notes: one-arm
B31: H0610-G1dh/none-Hi-Kn010G3/L0069-k0 (antibody, V domains shown)
VH: B1 VH with T19K, V37I, A40P, E43Q, M48I, E54K, E62Q
VL: B1 VL with P28S, Q35M
notes: one-arm
B32: H0610-G1dh/none-Hi-Kn010G3/L0107-k0 (antibody, V domains shown)
VH: B1 VH with T19K, V37I, A40P, E43Q, M48I, E54K, E62Q
VL: B1 VL with P28S, Q35N, N58I
notes: one-arm
B33: H0610-G1dh/none-Hi-Kn010G3/L0038-k0 (antibody, V domains shown)
VH: B1 VH with T19K, V37I, A40P, E43Q, M48I, E54K, E62Q
VL: B1 VL with P28S, S32F, Q35N
notes: one-arm
B34: H0610-G1dh/none-Hi-Kn010G3/L0123-k0 (antibody, V domains shown)
VH: B1 VH with T19K, V37I, A40P, E43Q, M48I, E54K, E62Q
VL: B1 VL with P28S, Q35N, F60K
notes: one-arm
B35: H0610-G1dh/none-Hi-Kn010G3/L0046-k0 (antibody, V domains shown)
VH: B1 VH with T19K, V37I, A40P, E43Q, M48I, E54K, E62Q
VL: B1 VL with P28S, S32V, Q35N
notes: one-arm
B36: H0610-G1dh/none-Hi-Kn010G3/L0117-k0 (antibody, V domains shown)
VH: B1 VH with T19K, V37I, A40P, E43Q, M48I, E54K, E62Q
VL: B1 VL with P28S, Q35N, F60A
notes: one-arm
B37: H0610-G1dh/none-Hi-Kn010G3/L0008-k0 (antibody, V domains shown)
VH: B1 VH with T19K, V37I, A40P, E43Q, M48I, E54K, E62Q
VL: B1 VL with S25V, P28S, Q35N
notes: one-arm
B38: H0610-G1dh/none-Hi-Kn010G3/L0041-k0 (antibody, V domains shown)
VH: B1 VH with T19K, V37I, A40P, E43Q, M48I, E54K, E62Q
VL: B1 VL with P28S, S32L, Q35N
notes: one-arm
B39: H0610-G1dh/none-Hi-Kn010G3/L0042-k0 (antibody, V domains shown)
VH: B1 VH with T19K, V37I, A40P, E43Q, M48I, E54K, E62Q
VL: B1 VL with P28S, S32M, Q35N
notes: one-arm
B40: H0610-G1dh/none-Hi-Kn010G3/L0104-k0 (antibody, V domains shown)
VH: B1 VH with T19K, V37I, A40P, E43Q, M48I, E54K, E62Q
VL: B1 VL with P28S, Q35N, N58F
notes: one-arm
B41: H0610-G1dh/none-Hi-Kn010G3/L0009-k0 (antibody, V domains shown)
VH: B1 VH with T19K, V37I, A40P, E43Q, M48I, E54K, E62Q
VL: B1 VL with S26P, P28S, Q35N
notes: one-arm
B42: H0610-G1dh/none-Hi-Kn010G3/L0006-k0 (antibody, V domains shown)
VH: B1 VH with T19K, V37I, A40P, E43Q, M48I, E54K, E62Q
VL: B1 VL with S25P, P28S, Q35N
notes: one-arm
B43: H0610-G1dh/none-Hi-Kn010G3/L0044-k0 (antibody, V domains shown)
VH: B1 VH with T19K, V37I, A40P, E43Q, M48I, E54K, E62Q
VL: B1 VL with P28S, S32P, Q35N
notes: one-arm
B44: H0610-G1dh/none-Hi-Kn010G3/L0122-k0 (antibody, V domains shown)
VH: B1 VH with T19K, V37I, A40P, E43Q, M48I, E54K, E62Q
VL: B1 VL with P28S, Q35N, F60I
notes: one-arm
B45: H0610-G1dh/none-Hi-Kn010G3/L0012-k0 (antibody, V domains shown)
VH: B1 VH with T19K, V37I, A40P, E43Q, M48I, E54K, E62Q
VL: B1 VL with P28S, L29F, Q35N
notes: one-arm
B46: H0610-G1dh/none-Hi-Kn010G3/L0039-k0 (antibody, V domains shown)
VH: B1 VH with T19K, V37I, A40P, E43Q, M48I, E54K, E62Q
VL: B1 VL with P28S, S32H, Q35N
notes: one-arm

Molecular target: T1, human GPC3 (human, UniProt P51654 25-563)
T1 construct: range 25-563; soluble analyte; also called soluble human GPC3; glypican 3
T1 sequence (P51654 25-563 limits assumed): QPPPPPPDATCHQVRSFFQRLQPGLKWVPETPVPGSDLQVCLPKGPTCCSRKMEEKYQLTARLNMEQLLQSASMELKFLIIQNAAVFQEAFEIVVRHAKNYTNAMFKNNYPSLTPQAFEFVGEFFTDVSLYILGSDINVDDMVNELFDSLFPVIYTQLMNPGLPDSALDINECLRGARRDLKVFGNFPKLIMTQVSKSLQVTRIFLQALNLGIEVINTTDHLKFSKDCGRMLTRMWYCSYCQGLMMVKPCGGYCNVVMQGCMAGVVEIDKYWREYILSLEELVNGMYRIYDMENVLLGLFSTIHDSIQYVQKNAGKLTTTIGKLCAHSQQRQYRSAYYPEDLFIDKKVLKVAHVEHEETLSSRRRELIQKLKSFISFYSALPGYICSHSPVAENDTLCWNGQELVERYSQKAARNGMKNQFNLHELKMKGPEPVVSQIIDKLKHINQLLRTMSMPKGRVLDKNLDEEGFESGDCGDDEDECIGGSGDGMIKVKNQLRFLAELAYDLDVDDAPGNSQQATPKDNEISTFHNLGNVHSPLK
Assay: SPR

| Binder | Kd [nM] |
| --- | --- |
| B1 | 2.1 |
| B2 | 4.54 |
| B3 | 4.01 |
| B4 | 2.85 |
| B5 | 2.23 |
| B6 | 4.43 |
| B7 | 6.03 |
| B8 | 4.2 |
| B9 | 5.24 |
| B10 | 3.35 |
| B11 | 1.12 |
| B12 | 0.972 |
| B13 | 1.82 |
| B14 | 3.72 |
| B15 | 3.43 |
| B16 | 5.14 |
| B17 | 4.79 |
| B18 | 4.39 |
| B19 | 4.34 |
| B20 | 5.7 |
| B21 | 3.37 |
| B22 | 0.106 |
| B23 | 5.28 |

| Binder | Kd [nM] |
| --- | --- |
| B24 | 1.17 |
| B25 | 4.66 |
| B26 | 5.43 |
| B27 | 4.82 |
| B28 | 4.44 |
| B29 | 4.23 |
| B30 | 5.66 |
| B31 | 5.32 |
| B32 | 4.38 |
| B33 | 2.75 |
| B34 | 5.08 |
| B35 | 5.45 |
| B36 | 4.92 |
| B37 | 3.3 |
| B38 | 4.85 |
| B39 | 4.27 |
| B40 | 5.9 |
| B41 | 2.99 |
| B42 | 3.04 |
| B43 | 4.57 |
| B44 | 2.42 |
| B45 | 1.55 |
| B46 | 3.41 |
